This passage reports stoichiometry N results from paper PMC12654924.

In assay [1] the target is hemagglutinin of the Asiatic toad influenza-like virus, ectodomain (Asiatic toad influenza-like virus). Put plainly: cryo-EM structure.
The target in assay [2] is hemagglutinin of the spiny eel influenza-like virus, ectodomain (spiny eel influenza-like virus). Description: cryo-EM structure.

A word on the stoichiometry N: it is the number of molecules, sites or subunits per partner or assembly. “hemagglutinin of the Asiatic toad influenza-like virus, ectodomain (domain or fragment)” showed a stoichiometry N in assay [1] of 3.

The substance “hemagglutinin of the spiny eel influenza-like virus, ectodomain (domain or fragment)” returned a stoichiometry N in assay [2] of 3.
